Test results taken from article PMC11480844 (2024).

B1: H2-Kb / Ed10 (parent complex)
chain 1: GEQVEQRPPHLSVREGDSAFIICTYTDSATAYFYWYKQEPGAGLQLLMSVFSNVDRKEEQGLTVLLNKKDKRLSLNLTAAHPGDSAVYFCAVRGTGYQNFYFGKGTSLTVIP
chain 2: AQTIHQWPVAEIKAVGSPLSLGCTIKGKSSPNLYWYWQATGGTLQQLFYSITVGQVESVVQLNLSASRPKDDQFILSTEKLLLSHSGFYLCAWSPGYEQYFGPGTRLTVL
chain 3: not shown
chain 4: IQKTPQIQVYSRHPPENGKPNILNCYVTQFHPPHIEIQMLKNGKKIPKVEMSDMSFSKDWSFYILAHTEFTPTETDTYACRVKHDSMAEPKTVYWDRDM
chain 5: SIINFEKL
B2: H2-Kb / Ed45 (parent complex)
chain 1: GEQVEQRPPHLSVREGDSAVIICTYTDPNSYYFFWYKQEPGAGLQLLMKVFSSTEINEGQGFTVLLNKKDKQLSLNLTAAHPGDSAVYFCAVSGTNAYKVIFGKGTHLHVLP
chain 2: EAAVTQSPRSKVAVTGGKVTLSCHQTNNHDYMYWYRQDTGHGLRLIHYSYVADSTEKGDIPDGYKASRPSQENFSLILELASLSQTAVYFCASARGFQDTQYFGPGTRLLVL
chain 3: not shown
chain 4: B1 chain 4
chain 5: SIINFEKL

Variants of: B1
Assay: % of reporter cells activated (NFAT-GFP), raw
Note: test concentration or dose not given here.

Variant	ratio to parent
chain 5 E6G	0.824
chain 5 E6S	0.0168

The next lines start with the values.

ratio to parent	Variant
1.01	chain 5 S1H
0.717	chain 5 S1W

Variants of: B2
Assay: % of reporter cells activated (NFAT-GFP), raw

Variant	ratio to parent
chain 5 I3H	2.02
chain 5 I3A	2.14
chain 5 I2V	1.48
chain 5 I2P	1.32
chain 5 I2H	1.61
chain 5 I2A	1.32
chain 5 I2C	1.39
chain 5 I2K	1.83
chain 5 I2L	2.14
chain 5 I2M	2.11
chain 5 I2R	1.63
chain 5 I2F	1.21
chain 5 I2T	1.23
chain 5 I2D	1.34
chain 5 F5R	1.73
chain 5 F5I	0.389

Variant	ratio to parent
chain 5 F5V	0.617
chain 5 F5N	1.23
chain 5 F5E	1.34
chain 5 F5C	1.61
chain 5 F5S	1.09
chain 5 F5A	0.77
chain 5 E6M	0.312
chain 5 E6L	0.26
chain 5 E6H	0.541
chain 5 E6V	0.148
chain 5 E6K	0.861
chain 5 E6Y	0.198
chain 5 E6C	0.258
chain 5 E6S	0.801
chain 5 E6P	1.12
chain 5 E6A	1.48

Continued, values first:

ratio to parent	Variant
2.18	chain 5 I3V
2.47	chain 5 I3R
2.2	chain 5 I3M
1.96	chain 5 I3S
1.85	chain 5 I3N
2.08	chain 5 I3K
0.0812	chain 5 N4T
0.125	chain 5 N4W
1.07	chain 5 N4K
0.533	chain 5 N4R
0.0786	chain 5 N4M
0.668	chain 5 N4H
0.0797	chain 5 N4A
0.639	chain 5 K7N
0.0609	chain 5 K7E
0.569	chain 5 K7L
0.193	chain 5 K7Q
0.418	chain 5 K7F
0.925	chain 5 K7A
0.0944	chain 5 K7C

ratio to parent	Variant
1.18	chain 5 K7W
1.65	chain 5 L8M
1.53	chain 5 L8S
1.62	chain 5 L8I
1.87	chain 5 L8K
1.52	chain 5 L8D
1.52	chain 5 L8E
1.77	chain 5 L8A
1.7	chain 5 L8W
1.68	chain 5 L8P
1.57	chain 5 L8G
1.85	chain 5 L8Y
0.648	chain 5 S1R
0.0786	chain 5 S1A
0.483	chain 5 S1T
0.0722	chain 5 S1N
0.0549	chain 5 S1I
0.331	chain 5 S1Q
0.388	chain 5 S1G
